# Experiments:
# [1] = molecular target: Fc-tagged human FGFR4 ectodomain (human), P22455; assay: SPR: Fc-FGFR4 on the chip, FGF23 with sKL or heparin in solution; settings: remark: other sources report otherwise
# [2] = molecular target: Fc-tagged human FGFR4 ectodomain (human), P22455; assay: SPR: Fc-FGFR4 on the chip, FGF23 with heparin in solution (FIG. 11E); settings: remark: other sources report otherwise
# [3] = molecular target: Fc-tagged human FGFR4 ectodomain (human), P22455; assay: SPR (BIAcore T200): Fc-FGFR4 amine-coupled to the chip, FGF23 injected at 1000-63 nM, 25 °C; settings: remark: other sources report otherwise
# [4] = molecular target: Fc-tagged human FGFR4 ectodomain (human), P22455; assay: SPR: Fc-FGFR4 on the chip, FGF23 with sKL (human ectodomain, self-made) in solution (FIG. 11F); settings: remark: other sources report otherwise
# [5] = molecular target: Fc-tagged human FGFR1c ectodomain (human) (UniProt P11362); assay: plate assay: 100 ng FGF23 coated, 400 ng purified sKL-N694Q or wildtype, then 200 ng Fc-FGFR1c (FIG. 25F)
# Fc-tagged human FGFR1c ectodomain (human), sequence (P11362 22-376 limits assumed): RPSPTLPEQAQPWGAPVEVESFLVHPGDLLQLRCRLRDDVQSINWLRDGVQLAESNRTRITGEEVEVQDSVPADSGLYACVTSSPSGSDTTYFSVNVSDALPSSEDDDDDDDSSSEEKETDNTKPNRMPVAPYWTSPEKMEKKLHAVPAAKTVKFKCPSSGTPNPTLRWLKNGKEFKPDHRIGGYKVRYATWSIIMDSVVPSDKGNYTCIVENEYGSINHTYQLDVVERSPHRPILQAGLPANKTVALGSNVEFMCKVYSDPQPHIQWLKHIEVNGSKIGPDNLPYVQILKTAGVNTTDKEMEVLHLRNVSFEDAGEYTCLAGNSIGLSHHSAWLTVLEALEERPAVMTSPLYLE
# Fc-tagged human FGFR4 ectodomain (human), P22455, sequence (P22455 22-369): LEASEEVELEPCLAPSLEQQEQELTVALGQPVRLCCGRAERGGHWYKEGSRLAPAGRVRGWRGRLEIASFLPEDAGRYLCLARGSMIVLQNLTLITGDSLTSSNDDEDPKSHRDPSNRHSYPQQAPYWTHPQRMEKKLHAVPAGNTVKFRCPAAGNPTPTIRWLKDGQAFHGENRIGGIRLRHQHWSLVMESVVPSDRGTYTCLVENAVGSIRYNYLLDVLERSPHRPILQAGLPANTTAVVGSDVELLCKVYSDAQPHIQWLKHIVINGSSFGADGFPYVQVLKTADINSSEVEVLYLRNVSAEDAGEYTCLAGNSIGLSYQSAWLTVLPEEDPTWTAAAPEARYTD
"fold, effect of sKL on FGFR4 affinity for FGF23 against that of heparin [1]",fold increase in binding affinity in the presence of heparin [2],Kd [3],koff [3],kon [3],fold increase in binding affinity in the presence of sKL [4],fold increase in formation of the trimeric FGF23/FGFR1c/sKL complex against wildtype sKL [5],Binder
4 to 5 fold,3 fold,320 nM,0.04 s⁻¹,120000 M⁻¹ s⁻¹,13 fold,,"human FGF23, Q9GZV9 25-251 (ligand, UniProt Q9GZV9 25-251, looked up) YPNASPLLGSSWGGLIHLYTATARNSYHLQIHKNGHVDGAPHQTIYSALMIRSEDAGFVVITGVMSRRYLCMDFRGNIFGSHYFDPENCRFQHQTLENGYDVYHSPQYHFLVSLGRAKRAFLPGMNPPPYSQFLSRRNEIPLIHFNTPIPRRHTRSAEDDSERDPLNVLKPRARMTPAPASCSQELPSAEDNSPMASDPLGVVRGGRVNTHAGGTGPEGCRPFAKFI"
,,,,,,3 fold,"complex of FGF23 and sKL-N694Q (protein, part only; not given: FGF23 and C-terminal FLAG/His tag, not shown: small tags and cut ends) EPGDGAQTWARFSRPPAPEAAGLFQGTFPDGFLWAVGSAAYQTEGGWQQHGKGASIWDTFTHHPLAPPGDSRNASLPLGAPSPLQPATGDVASDSYNNVFRDTEALRELGVTHYRFSISWARVLPNGSAGVPNREGLRYYRRLLERLRELGVQPVVTLYHWDLPQRLQDAYGGWANRALADHFRDYAELCFRHFGGQVKYWITIDNPYVVAWHGYATGRLAPGIRGSPRLGYLVAHNLLLAHAKVWHLYNTSFRPTQGGQVSIALSSHWINPRRMTDHSIKECQKSLDFVLGWFAKPVFIDGDYPESMKNNLSSILPDFTESEKKFIKGTADFFALCFGPTLSFQLLDPHMKFRQLESPNLRQLLSWIDLEFNHPQIFIVENGWFVSGTTKRDDAKYMYYLKKFIMETLKAIKLDGVDVIGYTAWSLMDGFEWHRGYSIRRGLFYVDFLSQDKMLLPKSSALFYQKLIEKNGFPPLPENQPLEGTFPCDFAWGVVDNYIQVDTTLSQFTDLNVYLWDVHHSKRLIKVDGVVTKKRKSYCVDFAAIQPQIALLQEMHVTHFRFSLDWALILPLGNQSQVNHTILQYYRCMASELVRVNITPVVALWQPMAPNQGLPRLLARQGAWENPYTALAFAEYARLCFQELGHHVKLWITMNEPYTRQMTYSAGHNLLKAHALAWHVYNEKFRHAQNGKISIALQADWIEPACPFSQKDKEVAERVLEFDIGWLAEPIFGSGDYPWVMRDWLNQRNNFLLPYFTEDEKKLIQGTFDFLALSHYTTILVDSEKEDPIKYNDYLEVQEMTDITWLNSPSQVAVVPWGLRKVLNWLKFKYGDLPMYIISNGIDDGLHAEDDQLRVYYMQNYINEALKAHILDGINLCGYFAYSFNDRTAPRFGLYRYAADQFEPKASMKHYRKIIDSNGFPGPETLERFCPEEFTVCTECSFFHTRKS"

# Source: patent US20240384250A1, “FIBROBLAST GROWTH FACTOR 23 MODULATING COMPOUNDS” (THE UAB RESEARCH FOUNDATION, priority 2021, published 2024)
